The source of these data is patent US20110262445A1 (CEPHALON AUSTRALIA, published 2011).

For test [1], the target named is T1, human IL-23 (human, UniProt P29460 23-328; Q9NPF7 20-189).
T1 construct: Recombinant (Ebioscience); HIS-tagged in flow cytometry, biotinylated in some assays; also called hIL-23; rhIL-23
T1 sequence 1: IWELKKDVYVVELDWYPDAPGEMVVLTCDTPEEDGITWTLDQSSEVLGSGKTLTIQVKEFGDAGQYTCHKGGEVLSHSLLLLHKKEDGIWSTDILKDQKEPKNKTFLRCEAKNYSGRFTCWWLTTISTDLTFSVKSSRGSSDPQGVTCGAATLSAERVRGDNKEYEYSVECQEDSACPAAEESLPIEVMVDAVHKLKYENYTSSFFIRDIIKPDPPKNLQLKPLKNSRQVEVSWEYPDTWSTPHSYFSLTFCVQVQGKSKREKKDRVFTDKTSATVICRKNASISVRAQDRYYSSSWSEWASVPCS
T1 sequence 2: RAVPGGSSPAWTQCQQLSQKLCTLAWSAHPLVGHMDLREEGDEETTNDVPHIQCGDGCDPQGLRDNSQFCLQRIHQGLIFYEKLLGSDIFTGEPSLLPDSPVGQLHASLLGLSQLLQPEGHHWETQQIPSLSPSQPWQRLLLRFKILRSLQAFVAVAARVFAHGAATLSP
As to the kind of experiment: SPR, purified scFv captured via FLAG. How it is done:
(§1) A number of the scFv variants presented in TABLE 4 were selected for full characterization of binding kinetics, encompassing a broad range of mutation profiles and binding affinities. Large-scale protein expressions were carried out for each scFv. The expressed scFvs were purified as monomeric proteins and tested for binding against IL-12 and IL-23 by SPR (TABLE 5).
(§2) Purified scFvs were subjected to full kinetic characterization using a BIAcore T100 biosensor (GE Healthcare). Approximately 10,000 RU of the proprietry FLAG-specific capture molecule was immobilized on a CM5 Series S Sensor chip, using standard amine coupling chemistry in flow cells (FC) 1 and FC2 (or alternatively FC3 and FC4) of the BIAcore T100 Biosensor. The running buffer used was HBS-EP+ (BIAcore) and interactions measured at 30° C. or 35° C. to promote differentiation of scFvs with very similiar kd values. Peak purified FLAG-tagged scFvs (prepared as described in the previous paragraph) were diluted to 10 nM in running buffer, and captured on FC2 at a flow rate of 10 μl/min in order to capture 50 RU of scFv (typically 60 sec was sufficient to capture this level of tagged scFv). After an appropriate stabilization period, the target, IL-12 or IL-23, were passed over FC1 and FC2 at a flow rate of 60 μl/min at concentrations ranging from 81 nM to 0.13 nM (using a five-fold dilution of IL-12) and 81 nM to 1 nM (using a three-fold dilution of IL-23). The contact time for association was 180 sec and dissociation measured for 10 mins for the highest concentration and 300 sec for all other concentrations in the series. The sensorgram data from FC2 was subtracted from FC1 and a buffer only control. The curves were fitted using a 1:1 Langmuir equation to generate the kₐ, kd and KD values.

Test [2] addresses T2, human IL-12 (human, UniProt P29460 23-328; P29459 23-219).
T2 construct: Recombinant (Peprotech); FLAG-tagged IL-12 in the flow cytometry assays, biotinylated in the IL-12Rβ2 assay; also called hIL-12
T2 sequence 1: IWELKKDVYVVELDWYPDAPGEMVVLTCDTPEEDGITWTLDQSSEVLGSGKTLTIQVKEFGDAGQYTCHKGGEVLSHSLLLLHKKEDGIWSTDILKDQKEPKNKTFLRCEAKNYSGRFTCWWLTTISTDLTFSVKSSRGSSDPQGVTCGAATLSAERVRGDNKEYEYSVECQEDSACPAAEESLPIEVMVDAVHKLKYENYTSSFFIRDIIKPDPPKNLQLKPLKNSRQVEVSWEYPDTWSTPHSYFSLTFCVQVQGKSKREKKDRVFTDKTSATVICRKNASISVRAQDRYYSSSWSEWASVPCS
T2 sequence 2: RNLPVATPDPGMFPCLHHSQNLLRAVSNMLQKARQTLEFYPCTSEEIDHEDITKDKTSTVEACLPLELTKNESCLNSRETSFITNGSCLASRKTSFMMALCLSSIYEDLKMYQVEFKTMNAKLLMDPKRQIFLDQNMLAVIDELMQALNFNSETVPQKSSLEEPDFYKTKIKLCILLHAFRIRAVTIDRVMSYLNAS
As to the kind of experiment: SPR, purified scFv captured via FLAG. How it is done: as §1, §2

In test [3] the target is T1, human IL-23. As to the kind of experiment: SPR screen, crude scFv captured via FLAG. As to the method:
Approximately 6500 individual scFvs recovered from the ribosome display reactions were expressed and screened for binding against IL-23 using a high-throughout SPR assay. The variants were ranked according to the kd and the best variants were sequenced at the nucleic acid level.
High-throughput SPR screening was conducted using a BIAcore A100 biosensor (GE Healthcare). Approximately 10 000 RU of the proprietary FLAG-specific capture molecule was immobilized on a CM5 Series S Sensor chip, using standard amine coupling chemistry on Spots 1 & 5 (outer spots) and 3,000RU to Spots 2 & 4 (inner spots) in each of the four flow cells of the BIAcore A100 Biosensor. The running buffer used was HBS-EP+ (BIAcore) and all interactions measured at 25° C. Crude periplasmic preparations of FLAG-tagged scFvs (prepared as described in the previous paragraph), were diluted two-fold in running buffer before capturing at a flow rate of 5u1/min for 60 sec. Approx. 100RU (on outer spots) and 50RU (on inner spots) of tagged scFv was captured. Following a 2 min stabilization period, IL-23 was passed over all spots of all four flow cells simultaneously at a flow rate of 30u1/min for 120 sec and dissociation monitored for 200 sec. Generated sensorgrams were referenced against the unmodified spot 3 of each flow cell, and fitted using a 1:1 Langmuir equation with R1 set to local to account for varying ligand densities to generate the kₐ, kd and KD values.

In test [4] the target is T1, human IL-23. The experiment in a line: SPR, purified scFv captured via FLAG; LOD estimated 1 × 10^-5 s^-1. As to the method:
as §1, §2

Test [5] concerns the target T2, human IL-12. The experiment in a line: ELISA, coated IL-12. The method, boiled down:
(§3)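 Binding values are absorbance readings. After cytokine (1 μg/mL, carbonate buffer pH 9.6) was coated onto Maxisorp plates overnight at 4° C and the plates were blocked with 1% BSA in PBS, antibody titrations were bound for 1 hour at 25° C and detected with HRP-linked goat anti-human IgG or anti-murine immunoglobulin (1:2000). Color from TMB, stopped with 1M HCl, was read at 450 nm with 620 nm as reference.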

For test [6], the target named is T1, human IL-23. The experiment in a line: ELISA, coated IL-23. The method, boiled down:
as §3

Test [7] addresses T2, human IL-12. The experiment in a line: ELISA, coated IL-12. The method, boiled down: as §3
The source holds these as a separate data set.

The target of test [8] is T1, human IL-23. The experiment in a line: ELISA, coated IL-23. The method, boiled down:
as §3
The source holds these as a separate data set.

Read-outs that look alike come from different tables or passages of the source.

B1: scFv CP-A6 (scFv)
scFv: QVQLVQSGAEVKKPGASVKVSCKASGYTFTDYYLHWVRQAPGQGLEWMGWIDPENGDTEHAPKFQGRVTMTTDTSTSTAYMELRSLRSDDTAVYYCNANKELRYFDVWGQGTMVTVSSGGGGSGGGGSGGGGSEIVMTQSPATLSVSPGERATLSCRASQSISINLHWYQQKPGQAPRLLIYFASQSISGIPARFSGSGSGTEFTLTISSLQSEDFAVYYCQQSNSFPLTFGGGTKVEIKR
notes: scFv-80 variant: VH Y59H; not shown: proprietary C-terminal FLAG tag
Take B1: the kon in test [1] was determined as 310000 M⁻¹ s⁻¹; in test [2], 2e+06 M⁻¹ s⁻¹. This molecule also displayed a Kd in test [2] of 0.061 nM. Further, the koff in test [2] is 0.00012 s⁻¹; in test [3], 0.00019 s⁻¹; in test [4], under 1e-05 s⁻¹.

B2: scFv CU-A6 (scFv)
scFv: QVQLVQSGAEVKKPGASVKVSCKASGYTLTDYYLHWVRQAPGQGLEWMGWIDPENGDTEYAPKFQGRVTMTTDTSTSTAYMELRSLRSDDTAVYYCNANKELRYFDVWGQGAMVTVSSGGGGSGGGGSGGGGSEIVMTQSPATLSVSPGERATLSCRASQSISINLHWYQQKPGQAPRLLIYFASQSISGIPARFFGSGSGTEFTLTISSLQSEDFAVYYCQQSNSFPLTFGGGTKVEIKR
notes: scFv-80 variant: VH F29L, T107A; VL S63F; not shown: proprietary C-terminal FLAG tag
With B2, the kon in test [1] amounted to 300000 M⁻¹ s⁻¹; in test [2], 2e+06 M⁻¹ s⁻¹. In test [2], this molecule came in with a Kd of 0.048 nM. The koff in test [2] is 9.7e-05 s⁻¹; in test [3] it was 0.00019 s⁻¹; in test [4] it was under 1e-05 s⁻¹.

B3: Antibody 35 (antibody, human IgG1, kappa, V domains shown)
VH: QVQLVQSGAEVKKPGASVKVSCKVSGYTLTDYYMHWVRQAPGKGLEWMGWIDPENGDTEYAPKFQGRVTMTEDTSTDTAYMELSSLRSEDTAVYYCNACKELRYFDVWGQGTMVTVSS
VL: EIVMTQSPATLSVSPGERATLSCRASQSISINLHWYQQKPGQAPRLLIYFASQSISGIPARFSGSGSGTEFTLTISSLQSEDFAVYYCQQSNSWPLTFGGGTKVEIKR
Consider B3, for which the binding result in test [5] and in test [6] was “binds” each time.

B4: Antibody 37 (antibody, human IgG1, kappa, V domains shown)
VH: EVQLVQSGAEVKKPGATVKISCKVSGYTFTDYYMHWVQQAPGKGLEWMGWIDPENGDTEYAPKFQGRVTITADTSTDTAYMELSSLRSEDTAVYYCNACKELRYFDVWGQGTMVTVSS
VL: EIVLTQSPATLSLSPGERATLSCRASQSISINLHWYQQKPGQAPRLLIYFASQSISGIPARFSGSGSGTDFTLTISSLEPEDFAVYYCQQSNSWPLTFGGGTKVEIKR
notes: Superhumanized, backmutated heavy chain
As for B4, the binding result in test [5] and in test [6] was “binds” each time.

B5: Antibody 78 (antibody, human IgG1, kappa, V domains shown)
VH: QVQLVQSGAEVKKPGASVKVSCKVSGYTLTDYYLHWVRQAPGKGLEWMGWIDPENGDTEYAPKFQGRVTMTEDTSTDTAYMELSSLRSEDTAVYYCATNKELRYFDVWGQGTMVTVSS
VL: EIVLTQSPATLSLSPGERATLSCRASQSISINLHWYQQKPGQAPRLLIYFASQSISGIPARFSGSGSGTDFTLTISSLEPEDFAVYYCQQSNSFPLTFGGGTKVEIKR
For the molecule B5, the binding result in test [7] and in test [8] was “binds” throughout.

B6: Antibody 34 (antibody, human IgG1, kappa, V domains shown)
VH: EVQLVQSGAEVKKPGATVKISCKVSGYTFTDYYMHWVQQAPGKGLEWMGWIDPENGDTEYAPKFQGRVTITADTSTDTAYMELSSLRSEDTAVYYCNACKELRYFDVWGQGTMVTVSS
VL: EIVMTQSPATLSVSPGERATLSCRASQSISINLHWYQQKPGQAPRLLIYFASQSISGIPARFSGSGSGTEFTLTISSLQSEDFAVYYCQQSNSWPLTFGGGTKVEIKR
On to B6, for which the binding result in test [5] and in test [6] was “binds” throughout.

B7: Antibody 36 (antibody, human IgG1, kappa, V domains shown)
VH: QVQLVQSGAEVKKPGASVKVSCKASGYTFTDYYMHWVRQAPGQGLEWMGWIDPENGDTEYAPKFQGRVTMTTDTSTSTAYMELRSLRSDDTAVYYCNACKELRYFDVWGQGTMVTVSS
VL: EIVMTQSPATLSVSPGERATLSCRASQSISINLHWYQQKPGQAPRLLIYFASQSISGIPARFSGSGSGTEFTLTISSLQSEDFAVYYCQQSNSWPLTFGGGTKVEIKR
B7: the binding result in test [5] and in test [6] was “binds” throughout.

B8: Antibody 81 (antibody, human IgG1, kappa, V domains shown)
VH: QVQLVQSGAEVKKPGASVKVSCKVSGYTLTDYYLHWVRQAPGKGLEWMGWIDPENGDTEYAPKFQGRVTMTEDTSTDTAYMELSSLRSEDTAVYYCATNKELRYFDVWGQGTMVTVSS
VL: EIVMTQSPATLSVSPGERATLSCRASQSISINLHWYQQKPGQAPRLLIYFASQSISGIPARFSGSGSGTEFTLTISSLQSEDFAVYYCQQSNSFPLTFGGGTKVEIKR
Turning to B8, the binding result in test [7] and in test [8] was “binds” in each case.

B9: Antibody 79 (antibody, human IgG1, kappa, V domains shown)
VH: EVQLVQSGAEVKKPGATVKISCKVSGYTFTDYYLHWVQQAPGKGLEWMGWIDPENGDTEYAPKFQGRVTITADTSTDTAYMELSSLRSEDTAVYYCNANKELRYFDVWGQGTMVTVSS
VL: EIVMTQSPATLSVSPGERATLSCRASQSISINLHWYQQKPGQAPRLLIYFASQSISGIPARFSGSGSGTEFTLTISSLQSEDFAVYYCQQSNSFPLTFGGGTKVEIKR
For the molecule B9, the binding result in test [7] and in test [8] was “binds” throughout.

B10: Antibody 40 (antibody, human IgG1, kappa, V domains shown)
VH: EVQLVQSGAEVKKPGATVKISCKVSGYTFTDYYMHWVQQAPGKGLEWMGWIDPENGDTEYAPKFQGRVTITADTSTDTAYMELSSLRSEDTAVYYCATCKELRYFDVWGQGTMVTVSS
VL: EIVLTQSPDFQSVTPKEKVTITCRASQSISINLHWYQQKPDQSPKLLIKFASQSISGVPSRFSGSGSGTDFTLTINSLEAEDAATYYCQQSNSWPLTFGGGTKVEIKR
notes: Superhumanized PMA204
For the molecule B10, the binding result in test [5] and in test [6] was “binds” each time.
